Positions of bridges follow the written chain, without caps; N, C: chain ends.
Tests used:
[1] = Pharmacokinetics and tissue distribution of 125I-labeled THR-123; format: in vivo, Wistar rats
Source text: FIG. 45A-FIG. 45G Pharmacokinetics of THR-123. FIG. 45A. BMP7 structure figure with the residue weights resulting from the analysis mapped on to it. FIG. 45B, FIG. 45C. Radio-ligand receptor binding assays specific for individual type I receptors, Alk-3 (FIG. 45B) and Alk-6 (FIG. 45C). Highly purified extra-cellular domain (ECD) of Alk-3 or Alk-6 (expressed as a fusion protein with Fc domain) served as a receptor. In each assay purified receptor was immobilized on each well and peptide analog or unlabeled BMP7 was added, followed by ^125I-labeled BMP7. Radiolabeled BMP7 complex was counted in an auto-gamma counter. Results were expressed as the mean±s.e.m. Unlabeled BMP7, which served as a positive control in both assays, gave linear dose-related response curves. FIG. 45D, FIG. 45E. Concentration of THR-123 in systemic circulation of Wistar rats following iv injection of THR-123 (^125I-Tyr) via the tail vein determined by total radioactivity measurement. […] FIG. 45F. Tissue distribution of ^125I-THR-123. Six hours after intravenous administration of ^125I labeled-THR-123 in rats at a dose of 6.25 mg/kg-body weight, tissues were harvested and analyzed by automatic gamma well counter. […] FIG. 45G. Oral administration of THR-123 and elimination of THR-123 from the body. Radioactivity of orally administrated ^125I labeled-THR-123 at a dose of 5 mg/kg body weight was localized in the kidney between 1 and 6 hours after administration and peaked at around 3 hours.
The persistence of THR-123 in systemic circulation was evaluated using iv-administered ^125I-labeled compound and following the radioactivity decay.

[2] = system: mice with nephrotoxic serum nephritis; assay: Nephrotoxic serum nephritis (NTN) in CD1 mice; format: in vivo
Source text: FIG. 59A-FIG. 59M AA-123 Reverses Renal Fibrosis in Mice with Nephrotoxic Serum Nephritis. FIG. 59A-FIG. 59D. Representative Masson's trichrome staining picture of kidney sections from untreated control mice (FIG. 59A); 6 weeks NTN (FIG. 59B); 9 weeks post NTN (FIG. 59C); and 9 weeks NTN with THR-123 administered starting at 6 weeks NTN (FIG. 59D), Original magnification ×200. FIG. 59E-FIG. 59G. Morphometric analysis from control mice (0 weeks) (n=5), mice after 1 (n=6), 3 (n=8), and 6 weeks following induction of NTN (n=6), and mice at 9 weeks NTN with THR-123 administered starting 6 weeks NTN (THR-123 (6-9W) (n=6)), assessing percent of glomerulosclerosis score (FIG. 59E), tubular atrophy index (FIG. 59F), and fibrosis index (FIG. 59G). FIG. 59H. Blood Urea Nitrogen measurement for mice 6 weeks NTN (n=3), 9 weeks NTN (n=5), and 9 weeks NTN with THR-123 administered starting at 6 weeks NTN (n=5) FIG. 59I-FIG. 59L. E-cadherin/FSP1 immunolabeling of kidney from control untreated mice (FIG. 59I), 6 weeks NTN (FIG. 59J), 9 weeks NTN (FIG. 59K), and 9 weeks NTN with THR-123 administered starting at 6 weeks NTN (FIG. 59L). Representative results are shown. FIG. 59M. Percent of E-cadherin/FSP1 double positive tubule was assessed by counting the number of double-labeled tubules, 500 tubules per slide, 5 slides per experimental group. Data are expressed as mean±s.e.m. in the graph.
NTN is induced in C57BL6 mice by pre-immunizing with a subcutaneous injection of normal sheep IgG (200 μg) in complete Freund's adjuvant (day 1) followed by intravenous injection of nephrotoxic serum injection (50 μl, from day 5 to day 7). Mice were sacrificed at 1, 3, 6, 9 weeks after induction of NTN. Total RNA was isolated from the kidney by Trizol/Invitrogen PureLink RNA Mini Kit for RNA extraction. Ten nanogram of total RNA was used for generating complementary cDNA using the TaqMan One-Step RT-PCR Master Mix (Applied Biosystems, Foster City, Calif.). Quantitative PCR was performed to analyze the gene expression profile of BMP7, BMP receptors Alk2, Alk-3, Alk6 and BMPR II, and to BMP-binding proteins chordin, criml, fibrillinl, follistatin, KCP, USAG1, gremlin and noggin are analyzed (Table: Primer Sequences (below)) using ABIprism 7000 (Applied Biosystems).
NTN is induced in CD1 mice by the method described above. Six weeks after NTN induction, THR-123 (p.o. 5 mg/Kg/day) are started until 9 weeks. Mice are sacrificed at week 1, week 3, week 6 and week 9.
For the analysis of glomerulosclerosis, 20 glomeruli per each mouse were randomly picked and each glomerulus was evaluated according to the following scale: no sclerosis 0, 0 to ¼ of a glomerular surface area was sclerosed 1, ¼ to ½ was sclerosed 2, ½ to ¾ was sclerosed 3 and more than ¾ was sclerosed or with crescent 4. A glomerulosclerosis score was calculated as an arithmetic mean of these numbers for each mouse. The glomerulosclerosis scores from all mice were arbitrarily divided into 4 groups; that is no disease, mild, moderate and severe. The percentage of mice with these 4 groups was calculated.
For tubular atrophy score, ten 200× visual fields were randomly selected for each slide and tubular atrophy was assessed according to the following scale: no atrophy 0, 0 to ¼ of a visual field was occupied by atrophied tubules 1, ¼ to ½ 2, ½ to ¾ 3 and more than ¾ 4. A tubular atrophy score was then calculated as an arithmetic mean of these numbers per each mouse. The tubular atrophy scores from all mice were arbitrarily divided into 4 groups; that is no disease, mild, moderate and severe. The percentage of mice with these 4 groups was calculated and shown on the graph.
For the analysis of interstitial fibrosis, ten 200× visual fields were also selected randomly for each Masson trichrome stained kidney section and interstitial fibrosis was evaluated according to the following scale: no fibrosis 0, 0 to ¼ of a visual field was affected by interstitial fibrosis 1, ¼ to ½ 2, ½ to ¾ 3 and more than ¾ 4. […]

## (H)-CYFDDSSNVLCKKYRS-(OH) (H-CYFDDSSNVLCKKYRS-OH; disulfide 1-11; SMILES CC(C)C[C@@H]1NC(=O)[C@H](C(C)C)NC(=O)[C@H](CC(N)=O)NC(=O)[C@H](CO)NC(=O)[C@H](CO)NC(=O)[C@H](CC(=O)O)NC(=O)[C@H](CC(=O)O)NC(=O)[C@H](Cc2ccccc2)NC(=O)[C@H](Cc2ccc(O)cc2)NC(=O)[C@@H](N)CSSC[C@@H](C(=O)N[C@@H](CCCCN)C(=O)N[C@@H](CCCCN)C(=O)N[C@@H](Cc2ccc(O)cc2)C(=O)N[C@@H](CCCNC(=N)N)C(=O)N[C@@H](CO)C(=O)O)NC1=O) [SEQ ID NO: 1]
[1]; iv
  share of the injected dose in the beta phase: 10%
[1]; iv, 125I-labeled
  alpha phase half-life: very short half-life
  beta phase half-life: 55 to 58 min
  decrease of THR-123 levels in plasma and whole blood within 5 minutes: ~90%
[1]; iv, tail vein, total radioactivity
  share of the injected dose in the alpha phase: approximately 90%
[1]; oral, 24 hours after administration
  clearance of radioactivity from the kidney: completely cleared
[1]; six hours after iv 6.25 mg/kg, listed as THR-123, 6.25 mg/kg
  tissue distribution of radioactivity: majority of the radioactivity was still localized in the kidney and bladder
[2]; THR-123 p.o. 5 mg/Kg/day from week 6 to 9
  glomerular lesion (sclerosis), tubular atrophy and fibrosis: improved glomerular lesion (sclerosis) and tubular atrophy and fibrosis
[2]; week 6 to 9 treatment
  Mac-1 positive macrophage accumulation: inhibited accumulation of macrophage
  blood urea nitrogen: decreased
  cells exhibiting an EMT program (FSP-1 and E-cadherin positive): significantly decreased the number of cells exhibiting an EMT program
  expression of fibronectin and type I collagen: decreased expression of matrix components such as fibronectin and type I collagen
  phospho-smad1/5 accumulation: increased accumulation of phospho-Smad1/5

Source: patent US20160058829A1, “ANTI-FIBROTIC PEPTIDES AND THEIR USE IN METHODS FOR TREATING DISEASES AND DISORDERS CHARACTERIZED BY FIBROSIS” (Thrasos Innovation, Inc., priority 2011, published 2016)
